Drawing on paper PMC6058786 (Haematologica, 2018), this text covers Kd for 3 molecules.

The target of assay [1] is T1, purified Pin1 WW-domain (UniProt Q13526 5-39). Description: ITC. A general note: ITC needs no label: the signal is the heat of the interaction.
The target of assay [2] is T1, purified Pin1 WW-domain. As to the kind of experiment: NMR titration.
The target of assay [3] is T1, purified Pin1 WW-domain. Description: ITC. The source holds these as a separate data set.

T1 sequence (Q13526 5-39): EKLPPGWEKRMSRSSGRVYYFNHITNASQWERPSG

The term Kd denotes the concentration at which binding is half-saturated. In the assay with purified Pin1 WW-domain [1], HKCRKAGVGQSWKENSPLNVS (not fully specified; phosphoserine at 258) [Ser258-phosphorylated TFCD-encoding peptide (ITC)] showed a Kd of approximately 137 µM.

On to HKCRKAGVGQSWKENSPLNVS (not fully specified; phosphoserine at 253; phosphoserine at 258) [double phosphorylated pSer253/pSer258 TFCD peptide], for which the Kd with purified Pin1 WW-domain [2] came out at 133 ± 13 µM.

For HKCRKAGVGQSWKENSPLNVS [unphosphorylated TFCD (ITC)], binding in the assay with purified Pin1 WW-domain [3] was characterised by a dissociation constant (Kd) of 1530 µM.
